The values that follow come from patent US20240076384A1.

In experiment [1] the target is soluble mouse Fc-human NKG2D dimer (human) (UniProt P26718). Description: SPR, 37 C, mFc-hNKG2D captured, TriNKET as analyte, experiment 1. (In general: SPR reads the build-up and loss of mass on a sensor chip optically.)
The target is the same in experiment [2]. Put plainly: SPR, 37 C, mFc-hNKG2D captured, TriNKET as analyte, experiment 3.
Experiment [3] shares this target. Description: SPR, 37 C, mFc-hNKG2D captured, TriNKET as analyte, steady state affinity fit, experiment 2.
Experiment [4] has the same target. Description: SPR, 37 C, kinetic fit, average of three experiments for TriNKET A (cell split over r19 and r20, columns shifted).
Experiment [5] has the same target. Put plainly: SPR, 37 C, mFc-hNKG2D captured, TriNKET as analyte, kinetic fit, experiment 3.
For experiment [6] the target is unchanged. Description: SPR, 37 C, steady state affinity fit, average of three experiments for TriNKET A (cell split over r19 and r20, columns shifted).
The target is the same in experiment [7]. Description: SPR, 37 C, mFc-hNKG2D captured, TriNKET as analyte, kinetic fit, experiment 1.
The target is the same in experiment [8]. Description: SPR, 37 C, average of three experiments for TriNKET A (columns shifted).
Experiment [9] has the same target. Put plainly: SPR, 37 C, mFc-hNKG2D captured, TriNKET as analyte, kinetic fit, experiment 2.
Experiment [10] has the same target. Put plainly: SPR, 37 C, mFc-hNKG2D captured, TriNKET as analyte, steady state affinity fit, experiment 3.
Experiment [11] has the same target. Description: SPR, 37 C, mFc-hNKG2D captured, TriNKET as analyte, steady state affinity fit, experiment 1.
For experiment [12] the target is unchanged. Description: SPR, 37 C, mFc-hNKG2D captured, TriNKET as analyte, experiment 2.

Sequence of soluble mouse Fc-human NKG2D dimer (human) (P26718 78-216): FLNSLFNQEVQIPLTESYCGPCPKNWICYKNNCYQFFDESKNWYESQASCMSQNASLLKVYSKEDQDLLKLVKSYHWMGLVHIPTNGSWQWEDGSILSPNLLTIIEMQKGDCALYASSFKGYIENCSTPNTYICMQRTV

B1: TriNKET A (a TriNKET containing A49) (bispecific antibody, part only; not given: Tumour antigen arm, constant regions, Fc, V domains shown, not shown: another chain or arm of the molecule; a dimerising Fc or GST)
VH: EVQLVESGGGLVKPGGSLRLSCAASGFTFSSYSMNWVRQAPGKGLEWVSSISSSSSYIYYADSVKGRFTISRDNAKNSLYLQMNSLRAEDTAVYYCARGAPMGAAAGWFDPWGQGTLVTVSS
VL: DIQMTQSPSSVSASVGDRVTITCRASQGISSWLAWYQQKPGKAPKLLIYAASSLQSGVPSRFSGSGSGTDFTLTISSLQPEDFATYYCQQGVSFPRTFGGGTKVEIK
In the case of B1, the Stoichiometry in [1] turned out to be 1.01; in [2], 1.12; in [8] it was 1.01; in experiment [12] it was 0.88. Moreover, the Kd worked out at 420 nM in experiment [3]; 595 nM in experiment [5]; 487 nM in [6]; 605 nM in [7]; 523 nM in experiment [9]; 580 nM in experiment [10]. The Kd in experiment [11] was 462 nM. The off-rate constant (koff) in experiment [4] amounted to 0.112 s⁻¹; in [5], 0.115 s⁻¹; in [7] it was 0.116 s⁻¹; in experiment [9], 0.106 s⁻¹. Further, the kon came out at 196000 M⁻¹ s⁻¹ in experiment [4], 193000 M⁻¹ s⁻¹ in experiment [5], 191000 M⁻¹ s⁻¹ in experiment [7] and 203000 M⁻¹ s⁻¹ in [9].

Usually Kd stands for the equilibrium constant for the complex coming apart. By koff is commonly meant a measure of how fast the partners let go of each other. The kon is the rate constant with which the complex forms.
